The values below come from US6030777.

For assay [1], the target named is E. coli sigma^70 (E. coli) (UniProt P00579).
In assay [2] the target is Salmonella typhimurium sigma^70, purified (Salmonella typhimurium) (UniProt P0A2E3).
Assay [3] addresses E. coli core RNA polymerase (E. coli) (UniProt P0A7Z4).

Bounds are passed on as bounds.

In assay [1], “AsiA protein (10 kDa anti-sigma^70 factor of bacteriophage T4), purified” came in with an E. coli RNA polymerase assay (sigma^70 dependent transcription on T4 phage DNA) of more than 80 % inhibited. Besides, in assay [2], the RNA polymerase activity, [^3 H]UTP (nmol), after adding S. typhimurium sigma^70 to E. coli RNA polymerase inhibited by AsiA ([^3 H]UTP (nmol)) was determined as 3 and the RNA polymerase activity, [^3 H]UTP (nmol), with sigma^70 preincubated with AsiA ([^3 H]UTP (nmol)) amounted to 0.98.

For “Salmonella typhimurium sigma^70, purified (from UniProt P0A2E3)”, the RNA polymerase activity, [^3 H]UTP (nmol) ([^3 H]UTP (nmol)) in assay [3] came to 2.3.
